In the supplement of paper PMC7125110:
± gives the standard error. This sample holds only a part of the variants without activity.

B1: glmS ribozyme (parent)
chain: AUAAAAGCGCCAGAACUACAGAAAUGUAGUUGACGAGGAGGAGGUUUAUCGAAUUUUCGGCGGAUGCCUCCAAA

Variants of: B1
Experiment: self-cleavage kobs at 2500 uM GlcN6P; higher = faster cleavage; RNA array
Conditions: with glucosamine-6-phosphate
Method in brief: (§1)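 Glucosamine-6-phosphate, from 40 μM to 10 mM in HEPES/KCl/Mg(OAc)2 buffer, was flowed over sequenced MiSeq chips carrying barcoded ribozyme variants transcribed in situ by E. coli RNA polymerase. A hybridised Cy3 probe tracked the variants at 37 °C as tiles were imaged over ~14 h. kobs, kcat and KM were obtained by fitting normalised per-tile medians to exponential decays and then applying weighted Michaelis–Menten fits across concentrations.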

Variant	self-cleavage kobs at 2500 uM GlcN6P
AUAAAAGCGCCAAAACUACAGAAAUGUAGUUGACGGGGAGGAGGUUUAUCGAAUUUUGGGCGGAUGCGUCCAAA	0.000157 ± 5.4e-05 s⁻¹
AUAAAAGCGCCUGAACUACAGAAAUGUAGUUGACGAGGAGGAGGUUUAUCGAAUUUUCGGCGGAGGCCUACAAA	6.44e-05 ± 2.6e-05 s⁻¹
AUAAAAGCGCCUGAACUACAGAAAUGUAGUCGACGAGGAGGAGGUUUAUCGAAUUUGCGGCGGAUGCCUCCAAA	5.17e-05 ± 1.8e-05 s⁻¹
AUAAAAGCGCCGGAAUUACAGAAAUGUAGUUGACGAGGAGGAAGCUUAUCGAAUUUUCGGCGGAUGCCUCCAAA	< 1e-05 s⁻¹
AUAAAAGCGCCCGAACUACAGAAAUGUAGUUGACGAGGAGGAGGUCUAUCGAAUUUUCGGCGGAUGCCUACAAA	3.42e-05 ± 1.2e-05 s⁻¹
AUAAAAGCGCCGGAACUACAGAAAUGUAGUUGACGAUGAGGAGGUUUAUCGACUUUUCGGCAGUUGCGUCCAAA	< 1e-05 s⁻¹
AUAAAAGCGCCGGAUCUACAGAAAUGUAGUUGACGAGGAGGAGGUUUAUCGAAUUUUCGGCGGAUGCCUCGAAA	2.52e-05 ± 1.1e-05 s⁻¹
AUAAAAGCGCCGGAACUACAGAAAUGUAGUUGACGAGUAGGAGGUUUAUCGAAUUUUCGGCGGAUGGAUCCAAA	9.28e-05 ± 2.6e-05 s⁻¹
AUAAAAGCGCCUGAACUACAGAAAUGUAGUGGACGAGGAGGAGGUUUAUCGAAUUUUGGGCGGAUGCCUCCAAA	7.42e-05 ± 2.7e-05 s⁻¹
AUAAAAGCGCCGGAACUACAGAAAUGUAGUUGACGAGGAGGAGGUUUAUCUAAUUGUCGGCGGAUGCCUCCAAA	< 1e-05 s⁻¹
AUAAAAGCGCCGGAACUACAGAAAUGUAGUUGACGAGGAUGAGGUUUAUCGAAUUUUCGGCGGAUGUCUCCAAA	< 1e-05 s⁻¹
AUAAAAGCGCCGGAACUACAUAAAUGUAGUUGACGAGGAGGAGGUUGAUCGAAUUUUCGGCGGAAGCCUCCAAA	6.16e-05 ± 1.7e-05 s⁻¹
AUAAAAGCGCCGGAACUACAGAAAUGUAUUUGACGAGGAGGAGGUUGAUCGAAUUUUCGGCGGAUGCCUCCAAA	6.74e-05 ± 1.5e-05 s⁻¹
AUAAAAGCGCCUGAACUACAGAAAUGUAGUUGUCGAGGAUGAGGUUUAUCGAAUUUUCGGCGGAUGCCUCCAAA	3.71e-05 ± 1.4e-05 s⁻¹
AUAAAAGCGCCAAAUCUACAGAAAUGUAGUUGACGAGGAGGAGGUUUAUCGAAUUUUGGGCGGAGGCCUGCAAA	7.13e-05 ± 3.5e-05 s⁻¹
AUAAAAGCGCCUGAACUACAGAAAUGUAGUUGACGAGGAGGAUGUUUAUUGAAUUUUCAGCGGAUGCCUCCAAA	< 1e-05 s⁻¹
AUAAAAGCGCCUGAUCUACAGAAAUGUAGUUGACGAGGAGGAGGUUCAUCGAAUUUUCGGCGGAUGCCUCCAAA	0.000776 ± 0.00023 s⁻¹

Variant	self-cleavage kobs at 2500 uM GlcN6P
AUAAAAGCGCCGGGACUACAGAAAUGUAGUUUUCGAGGAGGAGGUUUAUCCAAUUUUCGGCGGAUGCCUCCAAA	< 1e-05 s⁻¹
AUAAAAGCGCCGGAACUACAGAAAUGUAGUUGACGAGGAGGAGGUUUAUCGAUUGUUCGGCGGAUGCCUCCAAA	0.000166 ± 2.9e-05 s⁻¹
AUAAAAGCGCCGGAGCUACAGAAAUGUAGUUGACGAGGAGGAGAUUUAUCGAAAUUUCGGUGGAUGCCUCCAAA	< 1e-05 s⁻¹
AUAAAAGCGCCUGGACUACAGAAAUGUAGUUUACGAGGAGGAGGUUUAUCGAAUUUUCGGCGGAUGCCUCCAAA	0.000861 ± 0.00015 s⁻¹
AUAAAAGCGCCUGAACUACAGAAAUGUAGUUGUCGAUGAGGAGGUUUAUCGAAUUAUCGGCGGAUGCCUCCAAA	< 1e-05 s⁻¹
AUAAAAGCGCCCGAACUACAGAAAUGUAGUUGACGAGGAGGAGGAUUAUCGAAUUUUCGGCGGAUGGCUCCAAA	0.000527 ± 0.00016 s⁻¹
AUAAAAGCGCCAAAACUACAGAAAUGUAGUUGACGAGGAGGAGGUUUAUAGAAUUUUCGGCGGAUGCCACCAAA	3.87e-05 ± 1.8e-05 s⁻¹
AUAAAAGCGCCUGAACUACAGAAAUGUAGGUGACGAGGAGGAGGUUUACCGAAUUUUCGGCGGAUGCCUCCAAA	< 1e-05 s⁻¹
AUAAAAGCGCCCGAACUACAGAAAUGUAGUCGACGAGGAGGAGGUUUAUCGAAUUCUCGGCGGAUGCCUCCAAA	0.000204 ± 6.7e-05 s⁻¹
AUAAAAGCGCCUGAACUACAGAAAUGUAGUUGACGAGGAGGAGGUUUUUCCAAUUUUCGUCGGAUGCCUCCAAA	< 1e-05 s⁻¹
AUAAAAGCGCCAAAACUACAGAAAUGUAGUUGCCGAGGAGGAGGUUUAUCGAAUUUUCGGCGGAUGCCUUCAAA	< 1e-05 s⁻¹
AUAAAAGCGCCGGAACUACAGAAAUGUAGUUGACUAGGAGGAGGUUUAUCGAAUUUUCGGCGGAUGACUCCAAA	< 1e-05 s⁻¹
AUAAAAGCGCCUGUACUACAGAAAUGUAGUUGACGAGGAGGAGGUUUAUCGAAUUUUCGGCGGAUACCUCCAAA	0.000704 ± 0.00016 s⁻¹
AUAAAAGCGCCGGAACUACAGAAAUGUAGUUGACGAGGAGGAGGUUUAUCGAAUUUUCGGCGGUUGGCUCCAAA	< 1e-05 s⁻¹
AUAAAAGCGCCGGAAUUACAGAAAUGUAGUUGACGAGGAGGAGGUUUAUCGAAUUUUCGGCGGAUGCCGCCAAA	6.28e-05 ± 2.8e-05 s⁻¹
AUAAAAGCGCCGGAACUACAGAAAUGUAGUUGACGAGGAGGAGGUUUAUCGAAUUGUCGGCGGAUACCUCCAAA	0.000134 ± 2.5e-05 s⁻¹
AUAAAAGCGCCUGAACUACAGAAAUGUAGUUGACGAGGUGGAGGUUUUUCGAAUUUUCGGCGGAUGCCUCCAAA	0.000147 ± 2.7e-05 s⁻¹

Variants of: B1
Experiment: self-cleavage kobs at 10000 uM GlcN6P; higher = faster cleavage; RNA array
Conditions: with glucosamine-6-phosphate
Method in brief: as §1

Variant	self-cleavage kobs at 10000 uM GlcN6P
AUAAAAGCGCCUGAACUACAGAAAUGUAGUUGACGAGGAGGAGGUUUAUCGAAUUUUCGGCGGAGGCCUACAAA	0.000122 ± 2.2e-05 s⁻¹
AUAAAAGCGCCUGGACUACAGAAAUGUAGUUUACGAGGAGGAGGUUUAUCGAAUUUUCGGCGGAUGCCUCCAAA	0.00275 ± 0.00043 s⁻¹
AUAAAAGCGCCGGAACUACAGAAAUGUAGUUGACGAGGAGGAGGUUUAUCGAAUUUUCGGCGGUUGGCUCCAAA	< 1e-05 s⁻¹
